Molecular target: natriuretic polypeptide receptor A (Npra), mouse (mouse) (UniProt P18293)
Assay: cell-based or functional assay

Sequence of UniProt P18293 (P18293 29-1057 limits assumed): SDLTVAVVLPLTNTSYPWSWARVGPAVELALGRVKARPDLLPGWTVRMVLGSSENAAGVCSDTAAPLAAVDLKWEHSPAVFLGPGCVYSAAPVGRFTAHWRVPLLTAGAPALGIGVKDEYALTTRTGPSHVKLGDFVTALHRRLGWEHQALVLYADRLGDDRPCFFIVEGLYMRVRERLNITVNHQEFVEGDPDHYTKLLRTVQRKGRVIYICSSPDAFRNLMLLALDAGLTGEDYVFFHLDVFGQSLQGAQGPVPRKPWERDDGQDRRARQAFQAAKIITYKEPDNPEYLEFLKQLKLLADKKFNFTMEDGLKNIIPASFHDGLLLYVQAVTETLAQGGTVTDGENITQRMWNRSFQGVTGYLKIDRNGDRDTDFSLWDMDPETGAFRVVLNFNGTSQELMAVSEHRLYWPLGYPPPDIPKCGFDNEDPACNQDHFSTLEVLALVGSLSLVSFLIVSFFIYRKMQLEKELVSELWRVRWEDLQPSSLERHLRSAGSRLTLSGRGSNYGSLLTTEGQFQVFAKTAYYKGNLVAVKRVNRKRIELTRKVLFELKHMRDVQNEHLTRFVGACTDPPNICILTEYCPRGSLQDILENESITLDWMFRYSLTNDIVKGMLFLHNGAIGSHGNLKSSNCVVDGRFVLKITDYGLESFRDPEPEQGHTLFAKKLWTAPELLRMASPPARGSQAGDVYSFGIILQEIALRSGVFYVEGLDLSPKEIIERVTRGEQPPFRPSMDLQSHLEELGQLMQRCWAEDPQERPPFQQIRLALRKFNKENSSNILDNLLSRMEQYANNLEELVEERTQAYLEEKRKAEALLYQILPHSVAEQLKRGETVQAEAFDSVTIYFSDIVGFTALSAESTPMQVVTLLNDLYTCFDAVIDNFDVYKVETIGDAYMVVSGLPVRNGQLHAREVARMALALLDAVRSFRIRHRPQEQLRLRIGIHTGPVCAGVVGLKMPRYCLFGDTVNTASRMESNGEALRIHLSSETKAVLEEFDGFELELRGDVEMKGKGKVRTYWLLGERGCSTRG

Nppb-saporin conjugate
Npra-positive spinal cord neurons eliminated after intrathecal injection (ISH cell counts): 70%

Reference: US20170014486A1
